Laboratory results published in patent US20220356228A1 (ICAHN SCHOOL OF MEDICINE AT MOUNT SINAI, published 2022).
Residue numbers refer to the chain shown, from its start.

B1: 1A7 (antibody, V domains shown)
VH: QVQLVQSGAEVKKPGASVKVSCKASGYTFTFYDINWVRQATGQGLEWMGWMNPNSGNTGYAQNFQGRVTMTRNTSINTAYLELSSLRSEDTAVYYCARKIWVGHTTFDRWGQGTLVTVSS
VL: AIQMTQSPSSLSASVGDRVTITCRASQSISGYLNWYQQKPGKAPNLLIYAASNLQSGVPSRFSGSGSGTDFTLTISSLQREDFAPYYCQQTYNIPFTFGGGTKVEIK
B2: 2A6 (antibody, V domains shown)
VH: QVQLQQWGAGLLKPSETLSLTCAVYGGSFSGYYWSWIRQPPGKGLEWIGDINHGGSTNYNPSLKSRVIISVDTSKNQFSLKLSSVTAADTALYYCARGWGGQVAHWFDPWGQGTLGTVSS
VL: DIVMTQSPDSLALSLGERATINCKSSQSVLFSSNNQNYLAWYQQKPGQPPKLLIYWASTRESGVPDRFSGSGSGTDFTLTVSSLQAEDVAVYFCQQYYSLPYTFGQGTKLEIK
B3: 3D2 (antibody, V domains shown)
VH: QVQLQQWGAGLLKPSETLSLTCAVFGGSFSSYYWSWIRHPPGKGLEWIGDINHSGSTNYNPSLKSRVTLSVDTSKNQFSLKVTSVTAADTAVYYCARWGIAADYGMDVWGQGTTVTVSS
VL: EIVLTQSPGTLSLSPGERATLSCRASQSVSSSYLAWYQQKPGQAPRLLIYGASSRATGIPDRFSDSGSGTDFTLTISRLEPEDFALYYCQQYGTSPWTFGQGTKVEIK
B4: 4D11 (antibody, V domains shown)
VH: QVQLVESGGGLVKPGGSLRLSCAGSGFTFSDHYMSWIRQAPGKGLEWVSYISTSGRTIYYADSVKGRFTISRDNAKNSLYLQMNSLRAEDTAVYYCASDYYDNSGWYYWGQGTLVTVSS
VL: not shown
B5: 1H1 (antibody, V domains shown)
VH: B4 VH with G24A, H32F, K43M, T53F, T57A, K65R, R87S, S104V, Y107D, Q111P
VL: not shown
B6: 1G8 (antibody, V domains shown)
VH: B4 VH with G24A, H32F, K43M, T53F, T57A, K65R, R87S, S104V, Y107D, Q111P
VL: not shown
B7: 4E2 (antibody, V domains shown)
VH: B4 VH with G24A, H32F, K43M, T53F, T57A, K65R, R87S, S104V, Y107D, Q111P
VL: not shown
B8: 1E12 (antibody, V domains shown)
VH: B4 VH with A23T, G24A, S54G, S104V, Y107D
VL: DVVLTQSPLSLPVTLGQPASISCRSSQSLIYSDGNTYLNWFQQRPGQSPRRLIYKVSDRDSGVPDRFSGSGSGTDFTLKISRVEAEDVGVYYCMQGTHWPRTFGQGTKVEIK
B9: 1F11 (antibody, V domains shown)
VH: B4 VH with G24A, H32L, S98G, Y107D, Q111R
VL: not shown
B10: 1E8 (antibody, V domains shown)
VH: B4 VH with G24A, R56S, Y107N
VL: B8 VL with L4M, I30V, K79R, T97S
B11: 2A11 (antibody, V domains shown)
VH: B4 VH with G24A, A61V, T91M, S104V, Y107N, T113A
VL: B8 VL with I30V, S61F, V90I
B12: 1A3 (antibody, V domains shown)
VH: B4 VH with G24A, G26E, F27I, H32Y, V48I, Y60F, E89D, Y100F, Y107E
VL: B8 VL with L4M, P12S, I30V, V83A
B13: 8A7 (antibody, V domains shown)
VH: QVQLQESGPGLVKPSETLSLTCTVSGGSISSNYWNWIRQPPGKGLEWIGYIYYSGSTNYNPSLKSRVTISVDTSKNQFSLKLSSVTAADTAVYYCARRGFEQQLSYYYYYGLDVWGQGTTVTVSS
VL: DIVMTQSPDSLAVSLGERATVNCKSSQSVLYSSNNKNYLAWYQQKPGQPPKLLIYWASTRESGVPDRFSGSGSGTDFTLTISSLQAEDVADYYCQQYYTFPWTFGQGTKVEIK
B14: 1H10 (antibody, V domains shown)
VH: EVQLLESGGGLVQPGGSLRLSCAASGFTLSTYAMSWVRQAPGKGLEWVSAISGTGLSTYYADSLKGRFTISRDISKNTLYLQMSSLKAEDTAVYYCAKGLELFYFYYGMDVWGQGTTVTVSS
VL: EIVLTQSPGTLSLSPGERATLSCRASQSVSSTYLAWYQQKPGQAPRLLIYGTSSRATGIPDRFSGSGSGTDFTLTISRLEPEDLAVYYCQQYGRSLIFGQGTRLEIK

Target: T1, JCV VP1 mutant L55F (John Cunningham virus (JCV), UniProt P03089 1-354)
T1 construct: also called VP1 L55F; 55m VP1
Assay: ELISA, plates coated with pseudovirus, purified antibody

Binder | binding result | AB conc. (lowest concentration of antibody that gave a clear signal above background) [ng/mL] | EC50 [ng/mL]
B1 | no binding (tested: 2.5 ng/ml to 200 ng/ml) |  | 
B2 | no binding (tested: 2.5 ng/ml to 200 ng/ml) |  | 
B3 | no binding (tested: 2.5 ng/ml to 200 ng/ml) |  | 
B4 |  | < 2.5 | 7.7
B5 |  | < 2.5 | 14.7
B6 |  | < 2.5 | 16.7
B7 |  | < 2.5 | 13.2
B8 |  | < 2.5 | 7.7
B9 |  | < 7.4 | 14.3
B10 |  | < 22 | 46.5
B11 |  | < 7.4 | 13.6
B12 |  | < 2.5 | 14.3

Target: T2, JCV major capsid protein VP1, wild type (John Cunningham virus (JCV), UniProt P03089 1-354)
T2 construct: also called WT VP1; wild type VP1
Assay: as above

Binder | EC50 [ng/mL] | AB conc. (lowest concentration of antibody that gave a clear signal above background) [ng/mL]
B13 | 8.5 | 
B1 | 24.7 | < 22
B14 | 19.3 | < 22
B2 | 1300 | < 200
B3 | 393 | < 67
B4 | 1.9 | < 2.5
B5 | 6.5 | < 2.5
B6 | 7 | < 2.5
B7 | 11.7 | < 7.4
B8 | 8.4 | < 7.4
B9 | 9.4 | < 7.4
B10 | 8 | < 2.5
B11 | 7.4 | < 7.4
B12 | 7.1 | < 2.5

Target: T3, JCV VP1 mutant S269F (John Cunningham virus (JCV), UniProt P03089 1-354)
T3 construct: also called VP1 S269F; 269m VP1
Assay: as above

Binder | AB conc. (lowest concentration of antibody that gave a clear signal above background) [ng/mL] | EC50 [ng/mL]
B1 | < 2.5 | 7.4
B14 | < 7.4 | 18.5
B2 | < 22 | 147
B3 | < 22 | 121
B4 | < 2.5 | 6.9
B5 | < 2.5 | 7.5
B6 | < 2.5 | 7.7
B7 | < 2.5 | 7.1
B8 | < 7.4 | 8.5
B9 | < 2.5 | 7.6
B10 | < 2.5 | 22
B11 | < 2.5 | 6.8
B12 | < 2.5 | 8

Target: T2, JCV major capsid protein VP1, wild type
Assay: cell-based or functional assay

Binder | Neutralization of wild type JCV, EC50 [pM]
B1 | 180
B14 | 155
B2 | 2710
B3 | 2250
B4 | 124
B5 | 182
B6 | 144
B7 | 160
B8 | 16
B9 | 111
B10 | 127
B11 | 146
B12 | 301

Target: T1, JCV VP1 mutant L55F
Assay: cell-based or functional assay

Binder | Neutralization of JCV L55F: EC50 [pM]
B4 | 245
B6 | 511
B8 | 56.7
B9 | 76
B10 | 3380
B11 | 45.5
B12 | 6600

Target: T3, JCV VP1 mutant S269F
Assay: cell-based or functional assay

Binder | Neutralization of JCV S269F: EC50 [pM]
B1 | 7
B14 | 20.9
B3 | 733
B4 | 12.7
B5 | 55.3
B6 | 22.7
B7 | 30
B8 | 105
B9 | 53
B10 | 55.3
B11 | 250
B12 | 37.3
